In IntAct's records for PubMed 29039417:

B1: Protein PTHB1 (Homo sapiens), Q3SYG4 (parent)
chain: MSLFKARDWWSTILGDKEEFDQGCLCLANVDNSGNGQDKIIVGSFMGYLRIFSPHPAKTGDGAQAEDLLLEVDLRDPVLQVEVGKFVSGTEMLHLAVLHSRKLCVYSVSGTLGNVEHGNQCQMKLMYEHNLQRTACNMTYGSFGGVKGRDLICIQSMDGMLMVFEQESYAFGRFLPGFLLPGPLAYSSRTDSFLTVSSCQQVESYKYQVLAFATDADKRQETEQQKLGSGKRLVVDWTLNIGEQALDICIVSFNQSASSVFVLGERNFFCLKDNGQIRFMKKLDWSPSCFLPYCSVSEGTINTLIGNHNNMLHIYQDVTLKWATQLPHIPVAVRVGCLHDLKGVIVTLSDDGHLQCSYLGTDPSLFQAPNVQSRELNYDELDVEMKELQKIIKDVNKSQGVWPMTEREDDLNVSVVVSPNFDSVSQATDVEVGTDLVPSVTVKVTLQNRVILQKAKLSVYVQPPLELTCDQFTFEFMTPDLTRTVSFSVYLKRSYTPSELEGNAVVSYSRPTDRNPDGIPRVIQCKFRLPLKLICLPGQPSKTASHKITIDTNKSPVSLLSLFPGFASQSDDDQVNVMGFHFLGGARITVLASKTSQRYRIQSEQFEDLWLITNELILRLQEYFEKQGVKDFACSFSGSIPLQEYFELIDHHFELRINGEKLEELLSERAVQFRAIQRRLLARFKDKTPAPLQHLDTLLDGTYKQVIALADAVEENQGNLFQSFTRLKSATHLVILLIALWQKLSADQVAILEAAFLPLQEDTQELGWEETVDAAISHLLKTCLSKSSKEQALNLNSQLNIPKDTSQLKKHITLLCDRLSKGGRLCLSTDAAAPQTMVMPGGCTTIPESDLEERSVEQDSTELFTNHRHLTAETPRPEVSPLQGVSE
partner: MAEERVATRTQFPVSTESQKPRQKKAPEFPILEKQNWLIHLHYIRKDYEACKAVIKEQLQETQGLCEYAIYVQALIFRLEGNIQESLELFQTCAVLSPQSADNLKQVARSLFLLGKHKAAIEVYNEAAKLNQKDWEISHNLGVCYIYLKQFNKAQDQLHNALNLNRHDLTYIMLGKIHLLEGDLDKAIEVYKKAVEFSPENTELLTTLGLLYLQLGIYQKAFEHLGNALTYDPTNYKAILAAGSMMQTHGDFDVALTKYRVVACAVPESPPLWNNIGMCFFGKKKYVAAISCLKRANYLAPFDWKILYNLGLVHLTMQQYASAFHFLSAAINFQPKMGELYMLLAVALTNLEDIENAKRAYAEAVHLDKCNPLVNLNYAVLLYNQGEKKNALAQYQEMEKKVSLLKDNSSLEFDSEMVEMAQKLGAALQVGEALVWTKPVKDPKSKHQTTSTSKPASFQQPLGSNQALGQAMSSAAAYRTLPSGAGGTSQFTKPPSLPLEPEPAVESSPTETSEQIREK

Variants of: B1
Details: with bbs4_human BBS4, Q96RK4

| Variant | effect of a mutation on the interaction |
| --- | --- |
| E873K | with no effect |
| P463A | with no effect |
| R449K | with no effect |
| W610A | with no effect |
| W610K | with no effect |
| S488E | with no effect |
| S488A | with no effect |
| T805E | with no effect |
| K661A | with no effect |
| S788K | with no effect |
| I707K | with no effect |
| H811K | with no effect |
| D686A | with no effect |
| C816E | with no effect |
| P564S | disrupting interaction strength |
| F476A | with no effect |
| E431K | with no effect |
| E765K | with no effect |
| A750E | with no effect |
| D859E | with no effect |
| E604K | with no effect |

| Variant | effect of a mutation on the interaction |
| --- | --- |
| P877A | with no effect |
| E501A | with no effect |
| V557E | with no effect |
| Q798K | disrupting interaction strength |
| L709K | with no effect |
| E668K | with no effect |
| V505A | with no effect |
| P479K | with no effect |
| T473E | with no effect |
| T473A | with no effect |
| V734E | with no effect |
| A746K | with no effect |
| S509P | disrupting interaction strength |
| L784K | with no effect |
| A504K | with no effect |
| G822E | with no effect |
| V424E | with no effect |
| V629E | with no effect |
| V629I | disrupting interaction strength |
| V450E | with no effect |
| S860K | with no effect |

More lines, now with the values ahead:

| effect of a mutation on the interaction | Variant |
| --- | --- |
| with no effect | P464A |
| with no effect | S541A |
| with no effect | R818K |
| with no effect | L827A |
| with no effect | D747K |
| with no effect | L620E |
| with no effect | S820E |
| with no effect | R726E |
| with no effect | D480K |
| with no effect | I707E |
| with no effect | D686K |
| disrupting interaction strength | P530S |
| with no effect | E765A |
| with no effect | A750K |
| disrupting interaction strength | Q748A |
| with no effect | Q748E |
| with no effect | L733E |
| with no effect | E714K |
| with no effect | Y490E |
| with no effect | E604A |
| with no effect | S555K |
| with no effect | S486E |
| with no effect | R854A |
| with no effect | L882A |

| effect of a mutation on the interaction | Variant |
| --- | --- |
| with no effect | F646A |
| with no effect | K554A |
| with no effect | L680A |
| with no effect | L784A |
| with no effect | T428K |
| with no effect | V413E |
| with no effect | F684K |
| with no effect | G701K |
| with no effect | D850A |
| disrupting interaction strength | V671I |
| with no effect | K526A |
| with no effect | Q462K |
| with no effect | K687A |
| with no effect | L467K |
| with no effect | E853A |
| with no effect | G585K |
| with no effect | R493A |
| with no effect | R679E |
| with no effect | A730K |
| disrupting interaction strength | G718T |
| with no effect | H732E |
| with no effect | H732A |
| with no effect | M837A |
| with no effect | F864E |
